From US20110158908A1, “CYCLOSPORIN A-BINDING PROTEIN” (Sapporo Medical University, priority 2007, published 2011)

Target: recombinant CSABP protein (CSABP-FL) (human) (UniProt Q9H6S0)
Assay: SPR, Biacore 3000; recombinant CSABP-FL immobilized on CM5 chip by amine coupling, CsA in PBS-8% DMSO as analyte

cyclosporin A (CsA) (peptide)
Kd: 120 nM
